{"source": "patent US20100239590A1", "target": "human IL-17RC on HS68 foreskin fibroblast cells (human) (UniProt Q8NAC3)", "sequence (Q8NAC3 21-791)": "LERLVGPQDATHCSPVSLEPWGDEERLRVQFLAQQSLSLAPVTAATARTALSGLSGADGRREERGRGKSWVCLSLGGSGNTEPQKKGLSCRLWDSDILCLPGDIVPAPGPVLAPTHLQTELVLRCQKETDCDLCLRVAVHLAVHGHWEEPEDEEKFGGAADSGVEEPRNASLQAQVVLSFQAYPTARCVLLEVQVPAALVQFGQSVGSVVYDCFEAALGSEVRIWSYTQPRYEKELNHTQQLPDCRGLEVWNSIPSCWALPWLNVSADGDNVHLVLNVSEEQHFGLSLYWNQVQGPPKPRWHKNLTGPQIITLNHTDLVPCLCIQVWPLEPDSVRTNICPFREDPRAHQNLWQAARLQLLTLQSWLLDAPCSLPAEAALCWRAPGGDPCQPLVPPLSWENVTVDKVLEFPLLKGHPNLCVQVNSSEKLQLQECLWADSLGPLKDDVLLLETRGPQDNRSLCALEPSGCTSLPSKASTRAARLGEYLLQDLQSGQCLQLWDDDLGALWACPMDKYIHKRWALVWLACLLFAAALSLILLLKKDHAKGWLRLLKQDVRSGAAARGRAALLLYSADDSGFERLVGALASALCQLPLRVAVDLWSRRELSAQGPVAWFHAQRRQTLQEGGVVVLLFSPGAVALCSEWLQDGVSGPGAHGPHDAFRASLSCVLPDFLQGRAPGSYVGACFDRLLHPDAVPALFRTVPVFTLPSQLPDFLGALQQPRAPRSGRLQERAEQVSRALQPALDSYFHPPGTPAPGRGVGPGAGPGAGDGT", "assay": "cell-based or functional assay", "data": [{"substance": "human IL-17A (from UniProt Q16552 24-155) (ligand)", "values": [{"measurement": "IL-6 induction in HS68 cells, EC50", "value": "5 to 10", "unit": "ng/mL"}]}]}
